Reference: patent US20210093730A1, “BIOMARKERS FOR ANTIBODY-DRUG CONJUGATE MONOTHERAPY OR COMBINATION THERAPY” (Immunomedics, Inc., priority 2019, published 2021)
Values joined by “and” are separate entries in the source; they are usually repeats but may differ in a detail not shown here. Equal entries are not always repeated.

Experiments:
[1] = test system: diverse metastatic solid cancers
Source text: Patients were refractory/relapsed after standard treatment regimens for metastatic cancer.

[2] = test system: platinum-resistant urothelial carcinoma; assay: Clinical trial of sacituzumab govitecan in 6 patients with metastatic platinum-resistant urothelial carcinoma (PRUC)
Procedure: Response was assessed using the Response Evaluation Criteria in Solid Tumors, version 1.1.

[3] = Pharmacokinetics in patient serum: ELISA for IgG and intact conjugate, HPLC for SN-38; format: in vivo, human
Procedure: SN-38 was measured by HPLC.

[4] = esophageal cancer, 4 assessable patients

Which results are given for sacituzumab govitecan?
total response [PR+SD] ([1]; esophageal cancer, 3/4): 75%; PD, patients [1, 4]: 1 patients; PR, patients [1, 4]: 1 patients; Abdominal pain, Grade 3 ([1]; in vivo): 0; Abdominal pain, Grade 4 ([1]; in vivo): 0; Abdominal pain, TOTAL ([1]; in vivo): 11%; Alopecia, TOTAL ([1]; in vivo): 40%; Anemia, Grade 4 ([1]; in vivo): 0; Anemia, TOTAL ([1]; in vivo): 13%; Deep vein thrombosis, Grade 3 ([1]; in vivo): 1 (2%); Deep vein thrombosis, Grade 4 ([1]; in vivo): 0; Deep vein thrombosis, TOTAL ([1]; in vivo): 2%; Diarrhea, Grade 4 ([1]; in vivo): 0; Diarrhea, TOTAL ([1]; in vivo): 47%; Dysgeusia, Grade 3 ([1]; in vivo): 0; Dysgeusia, Grade 4 ([1]; in vivo): 0; Dysgeusia, TOTAL ([1]; in vivo): 15%; Fatigue, Grade 4 ([1]; in vivo): 0; Fatigue, TOTAL ([1]; in vivo): 55%; Hypokalemia, Grade 3 ([1]; in vivo): 1 (2%); Hypokalemia, Grade 4 ([1]; in vivo): 0; Hypokalemia, TOTAL ([1]; in vivo): 11%; Nausea, Grade 4 ([1]; in vivo): 0; Nausea, TOTAL ([1]; in vivo): 53%; Neutropenia, TOTAL ([1]; in vivo): 43%; Pyrexia, Grade 3 ([1]; in vivo): 0; Pyrexia, Grade 4 ([1]; in vivo): 0; Pyrexia, TOTAL ([1]; in vivo): 13%; Vomiting, Grade 4 ([1]; in vivo): 0; Vomiting, TOTAL ([1]; in vivo): 32%; WBC Decrease, Grade 3 ([1]; in vivo): 1 (2%); WBC Decrease, Grade 4 ([1]; in vivo): 0; WBC Decrease, TOTAL ([1]; in vivo): 6%; alopecia ([1]; in vivo): 40%; anemia, grade 3 ([1]; in vivo): 2 (4%); anti-hRS7 or anti-SN-38 antibodies ([1]; in vivo): No anti-hRS7 or anti-SN-38 antibodies were detected; diarrhea ([1]; in vivo): 47%; diarrhea >=G3 ([1]; in vivo): 9%; diarrhea, grade 3 ([1]; in vivo): 4 (9%); fatigue ([1]; in vivo): 55%; fatigue >=G3 ([1]; in vivo): 9%; fatigue, grade 3 ([1]; in vivo): 4 (9%); nausea ([1]; in vivo): 53%; nausea >=G3 ([1]; in vivo): 0%; nausea, grade 3 ([1]; in vivo): 0; neutropenia >=G3 ([1]; in vivo): 28%; neutropenia G4 ([1]; in vivo): 4%; neutropenia, grade 3 ([1]; in vivo): 11 (24%); neutropenia, grade 4 ([1]; in vivo): 2 (4%); vomiting ([1]; in vivo): 32%; vomiting >=G3 ([1]; in vivo): 2%; vomiting, grade 3 ([1]; in vivo): 1 (2%); median time to progression (TTP), PDC pts ([1]; pancreatic cancer, 8 wks in last prior therapy): 12.7 wks and 11.9 wks; TTP, remaining 48 pts ([1]; range 6.0 to 51.4 wks): ≥ 12.6 wks; grade 4 non-hematologic toxicities ([2]; 6 patients): No grade 4 non-hematologic toxicities were observed; tolerability ([2]; 6 patients): generally well tolerated; patients with a clinically significant response ([2]; of 6 patients): 3 patients; patients with grade 3 toxicities (flank pain and bacteremia) ([2]; of 6 patients): Two; patients with progressive disease ([2]; of 6 patients): 3 patients; patients with partial response ([2]; of 6 patients, RECIST 1.1): Two; reduction in target lesions, patient with progressive disease because of a new lesion ([2]; one patient): 12%; reduction in target lesions, patient with stable disease ([2]; one patient): 28%; reduction in target lesions, best responder ([2]; partial response, including liver metastases): 38%; clearance of intact conjugate compared with the IgG ([3]; ELISA): cleared more quickly than the IgG; SN-38 in the serum bound to the IgG ([3]; HPLC, Unbound and TOTAL, non-glucuronidated form): > 95%; clearance of the conjugate from the serum ([3]; patients): ≤ 3 days
